The record followed here is publication PMC5835687, “Great Cause—Small Effect: Undeclared Genetically Engineered Orange Petunias Harbor an Inefficient Dihydroflavonol 4-Reductase” (Frontiers in Plant Science, 2018).

Substrate in the data set “purified protein”: O=C1c2c(O)cc(O)cc2O[C@H](c2cc(O)c(O)c(O)c2)[C@H]1O
In words: purified protein. Particulars: NADPH-dependent reduction; labelled compound.

Substrate in data set [1]: O=C1c2c(O)cc(O)cc2O[C@H](c2ccc(O)c(O)c2)[C@H]1O
Description: DFR enzyme assay, radiolabelled substrate, as previously described. It counts as biochemical, Zea mays. Conditions: NADPH-dependent reduction; labelled compound.

The Km is the concentration of substrate that gives half-maximal velocity. By kcat is commonly meant the maximal rate divided by the concentration of active sites.

B1: recombinant A1 protein (maize DFR) (Zea mays) (protein)
chain: MERGAGASEKGTVLVTGASGFVGSWLVMKLLQAGYTVRATVRDPANVGKTKPLMDLPGATERLSIWKADLAEEGSFHDAIRGCTGVFHVATPMDFLSKDPENEVIKPTVEGMISIMRACKEAGTVRRIVFTSSAGTVNLEERQRPVYDEESWTDVDFCRRVKMTGWMYFVSKTLAEKAALAYAAEHGLDLVTIIPTLVVGPFISASMPPSLITALALITGNAPHYSILKQVQLIHLDDLCDAEIFLFENPAAAGRYVCSSHDVTIHGLAAMLRDRYPEYDVPQRFPGIQDDLQPVRFSSKKLQDLGFTFRYKTLEDMFDAAIRTCQEKGLIPLATAAGGDGFASVRAPGETEATIGA
notes: full-length A1 cDNA in pGEX-6P-1, GST fusion from E. coli, GST tag removed, purified; A1 CDS 1,074 bp
On to B1, for which, in the data set “purified protein”, the Km was determined as 3.1 µM and the kcat was 0.87 s⁻¹. Also, in data set [1], the Km was 2.9 µM and the kcat is 0.70 s⁻¹.

B2: recombinant PhDFR (Petunia × hybrida DFR) (Petunia x hybrida) (protein)
chain: MASEAVHAPSPPVAVPTVCVTGAAGFIGSWLVMRLLERGYNVHATVRDPENKKKVKHLLELPKADTNLTLWKADLTVEGSFDEAIQGCQGVFHVATPMDFESKDPENEVIKPTVRGMLSIIESCAKANTVKRLVFTSSAGTLDVQEQQKLFYDQTSWSDLDFIYAKKMTGWMYFASKILAEKAAMEEAKKKNIDFISIIPPLVVGPFITPTFPPSLITALSLITGNEAHYCIIKQGQYVHLDDLCEAHIFLYEHPKADGRFICSSHHAIIYDVAKMVREKWPEYYVPTEFKGIDKDLPVVSFSSKKLTDMGFQFKYTLEDMYKGAIDTCRQKQLLPFSTRSAEDNGHNREAIAISAQNYASGKENAPVANHTEMLSNVEV
For the protein B2, in “purified protein”, the Km came out at 1.3 µM and the kcat turned out to be 2.14 s⁻¹.
